Source: article PMC3863616 (Journal of thrombosis and haemostasis : JTH, 2009)
Read-outs that look alike come from different tables or passages of the source. Blank lines part the entries; values can stand above or below the molecule they belong to.

Tests used:
[1] = target: VWF (antibody-immobilized) (Homo sapiens) (UniProt P04275); conditions: cited from earlier work
[2] = target: VWF (plastic-immobilized) (Homo sapiens) (UniProt P04275); conditions: cited from earlier work
[3] = target: Purified recombinant von Willebrand factor (UniProt P04275); assay: co-IP + ELISA
[4] = target: Endogenous von Willebrand factor of normal human plasma (human (endogenous in normal human …, UniProt P04275 764-2813)); assay: co-IP + ELISA
[5] = target: T1, Purified recombinant von Willebrand factor (UniProt P04275 764-2813); assay: co-IP + ELISA
[6] = target: T1, Purified recombinant von Willebrand …; assay: co-IP + ELISA; remark: listed apart in the source

Molecule: ADAMTS13 (from UniProt Q76LX8)
- Kd [1]: 90 nM
- Kd [2]: 14 nM

- Kd [3]: 100 nM
Molecule: Human recombinant ADAMTS13 truncated after the eighth TSR (domain or fragment)

- stoichiometry N [4]: 0.004 ADAMTS13 per VWF (molar ratio)
B1: Endogenous ADAMTS13 of normal human plasma (enzyme, UniProt Q76LX8 75-1427, looked up)
chain: AAGGILHLELLVAVGPDVFQAHQEDTERYVLTNLNIGAELLRDPSLGAQFRVHLVKMVILTEPEGAPNITANLTSSLLSVCGWSQTINPEDDTDPGHADLVLYITRFDLELPDGNRQVRGVTQLGGACSPTWSCLITEDTGFDLGVTIAHEIGHSFGLEHDGAPGSGCGPSGHVMASDGAAPRAGLAWSPCSRRQLLSLLSAGRARCVWDPPRPQPGSAGHPPDAQPGLYYSANEQCRVAFGPKAVACTFAREHLDMCQALSCHTDPLDQSSCSRLLVPLLDGTECGVEKWCSKGRCRSLVELTPIAAVHGRWSSWGPRSPCSRSCGGGVVTRRRQCNNPRPAFGGRACVGADLQAEMCNTQACEKTQLEFMSQQCARTDGQPLRSSPGGASFYHWGAAVPHSQGDALCRHMCRAIGESFIMKRGDSFLDGTRCMPSGPREDGTLSLCVSGSCRTFGCDGRMDSQQVWDRCQVCGGDNSTCSPRKGSFTAGRAREYVTFLTVTPNLTSVYIANHRPLFTHLAVRIGGRYVVAGKMSISPNTTYPSLLEDGRVEYRVALTEDRLPRLEEIRIWGPLQEDADIQVYRRYGEEYGNLTRPDITFTYFQPKPRQAWVWAAVRGPCSVSCGAGLRWVNYSCLDQARKELVETVQCQGSQQPPAWPEACVLEPCPPYWAVGDFGPCSASCGGGLRERPVRCVEAQGSLLKTLPPARCRAGAQQPAVALETCNPQPCPARWEVSEPSSCTSAGGAGLALENETCVPGADGLEAPVTEGPGSVDEKLPAPEPCVGMSCPPGWGHLDATSAGEKAPSPWGSIRTGAQAAHVWTPAAGSCSVSCGRGLMELRFLCMDSALRVPVQEELCGLASKPGSRREVCQAVPCPARWQYKLAACSVSCGRGVVRRILYCARAHGEDDGEEILLDTQCQGLPRPEPQEACSLEPCPPRWKVMSLGPCSASCGLGTARRSVACVQLDQGQDVEVDEAACAALVRPEASVPCLIADCTYRWHVGTWMECSVSCGDGIQRRRDTCLGPQAQAPVPADFCQHLPKPVTVRGCWAGPCVGQGTPSLVPHEEAAAPGRTTATPAGASLEWSQARGLLFSPAPQPRRLLPGPQENSVQSSACGRQHLEPTGTIDMRGPGQADCAVAIGRPLGEVVTLRVLESSLNCSAGDMLLLWGRLTWRKMCRKLLDMTFSSKTNTLVVRQRCGRPGGGVLLRYGSQLAPETFYRECDMQLFGPWGEIVSPSLSPATSNAGGCRLFINVAPHARIAIHALATNMGAGTEGANASYILIRDTHSLRTTAFHGQQVLYWESESSQAEMEFSEGFLKAQASLRGQYWTLQSWVPEMQDPQSWKGKEGT

- Kd [5]: > 500 nM
- Kd [6]: 79 nM
B2: Human recombinant ADAMTS13 with the active site mutation E225Q (enzyme, UniProt Q76LX8 75-1427, looked up)
chain: AAGGILHLELLVAVGPDVFQAHQEDTERYVLTNLNIGAELLRDPSLGAQFRVHLVKMVILTEPEGAPNITANLTSSLLSVCGWSQTINPEDDTDPGHADLVLYITRFDLELPDGNRQVRGVTQLGGACSPTWSCLITEDTGFDLGVTIAHQIGHSFGLEHDGAPGSGCGPSGHVMASDGAAPRAGLAWSPCSRRQLLSLLSAGRARCVWDPPRPQPGSAGHPPDAQPGLYYSANEQCRVAFGPKAVACTFAREHLDMCQALSCHTDPLDQSSCSRLLVPLLDGTECGVEKWCSKGRCRSLVELTPIAAVHGRWSSWGPRSPCSRSCGGGVVTRRRQCNNPRPAFGGRACVGADLQAEMCNTQACEKTQLEFMSQQCARTDGQPLRSSPGGASFYHWGAAVPHSQGDALCRHMCRAIGESFIMKRGDSFLDGTRCMPSGPREDGTLSLCVSGSCRTFGCDGRMDSQQVWDRCQVCGGDNSTCSPRKGSFTAGRAREYVTFLTVTPNLTSVYIANHRPLFTHLAVRIGGRYVVAGKMSISPNTTYPSLLEDGRVEYRVALTEDRLPRLEEIRIWGPLQEDADIQVYRRYGEEYGNLTRPDITFTYFQPKPRQAWVWAAVRGPCSVSCGAGLRWVNYSCLDQARKELVETVQCQGSQQPPAWPEACVLEPCPPYWAVGDFGPCSASCGGGLRERPVRCVEAQGSLLKTLPPARCRAGAQQPAVALETCNPQPCPARWEVSEPSSCTSAGGAGLALENETCVPGADGLEAPVTEGPGSVDEKLPAPEPCVGMSCPPGWGHLDATSAGEKAPSPWGSIRTGAQAAHVWTPAAGSCSVSCGRGLMELRFLCMDSALRVPVQEELCGLASKPGSRREVCQAVPCPARWQYKLAACSVSCGRGVVRRILYCARAHGEDDGEEILLDTQCQGLPRPEPQEACSLEPCPPRWKVMSLGPCSASCGLGTARRSVACVQLDQGQDVEVDEAACAALVRPEASVPCLIADCTYRWHVGTWMECSVSCGDGIQRRRDTCLGPQAQAPVPADFCQHLPKPVTVRGCWAGPCVGQGTPSLVPHEEAAAPGRTTATPAGASLEWSQARGLLFSPAPQPRRLLPGPQENSVQSSACGRQHLEPTGTIDMRGPGQADCAVAIGRPLGEVVTLRVLESSLNCSAGDMLLLWGRLTWRKMCRKLLDMTFSSKTNTLVVRQRCGRPGGGVLLRYGSQLAPETFYRECDMQLFGPWGEIVSPSLSPATSNAGGCRLFINVAPHARIAIHALATNMGAGTEGANASYILIRDTHSLRTTAFHGQQVLYWESESSQAEMEFSEGFLKAQASLRGQYWTLQSWVPEMQDPQSWKGKEGT
